# Source: IntAct's records for PubMed 29039417
# B1: BBSome complex member BBS2 (Homo sapiens), Q9BXC9 (parent)
# chain: MLLPVFTLKLRHKISPRMVAIGRYDGTHPCLAAATQTGKVFIHNPHTRNQHVSASRVFQSPLESDVSLLSINQAVSCLTAGVLNPELGYDALLVGTQTNLLAYDVYNNSDLFYREVADGANAIVLGTLGDISSPLAIIGGNCALQGFNHEGSDLFWTVTGDNVNSLALCDFDGDGKKELLVGSEDFDIRVFKEDEIVAEMTETEIVTSLCPMYGSRFGYALSNGTVGVYDKTSRYWRIKSKNHAMSIHAFDLNSDGVNELITGWSNGKVDARSDRTGEVIFKDNFSSAIAGVVEGDYRMDGHIQLICCSVDGEIRGYLPGTAEMRGNLMDTSAEQDLIRELSQKKQNLLLELRNYEENAKAELASPLNEADGHRGIIPANTRLHTTLSVSLGNETQTAHTELRISTSNDTIIRAVLIFAEGIFTGESHVVHPSIHNLSSSICIPIVPPKDVPVDLHLKAFVGYRSSTQFHVFESTRQLPRFSMYALTSLDPASEPISYVNFTIAERAQRVVVWLGQNFLLPEDTHIQNAPFQVCFTSLRNGGHLHIKIKLSGEITINTDDIDLAGDIIQSMASFFAIEDLQVEADFPVYFEELRKVLVKVDEYHSVHQKLSADMADHSNLIRSLLVGAEDARLMRDMKTMKSRYMELYDLNRDLLNGYKIRCNNHTELLGNLKAVNQAIQRAGRLRVGKPKNQVITACRDAIRSNNINTLFKIMRVGTASS
# partner: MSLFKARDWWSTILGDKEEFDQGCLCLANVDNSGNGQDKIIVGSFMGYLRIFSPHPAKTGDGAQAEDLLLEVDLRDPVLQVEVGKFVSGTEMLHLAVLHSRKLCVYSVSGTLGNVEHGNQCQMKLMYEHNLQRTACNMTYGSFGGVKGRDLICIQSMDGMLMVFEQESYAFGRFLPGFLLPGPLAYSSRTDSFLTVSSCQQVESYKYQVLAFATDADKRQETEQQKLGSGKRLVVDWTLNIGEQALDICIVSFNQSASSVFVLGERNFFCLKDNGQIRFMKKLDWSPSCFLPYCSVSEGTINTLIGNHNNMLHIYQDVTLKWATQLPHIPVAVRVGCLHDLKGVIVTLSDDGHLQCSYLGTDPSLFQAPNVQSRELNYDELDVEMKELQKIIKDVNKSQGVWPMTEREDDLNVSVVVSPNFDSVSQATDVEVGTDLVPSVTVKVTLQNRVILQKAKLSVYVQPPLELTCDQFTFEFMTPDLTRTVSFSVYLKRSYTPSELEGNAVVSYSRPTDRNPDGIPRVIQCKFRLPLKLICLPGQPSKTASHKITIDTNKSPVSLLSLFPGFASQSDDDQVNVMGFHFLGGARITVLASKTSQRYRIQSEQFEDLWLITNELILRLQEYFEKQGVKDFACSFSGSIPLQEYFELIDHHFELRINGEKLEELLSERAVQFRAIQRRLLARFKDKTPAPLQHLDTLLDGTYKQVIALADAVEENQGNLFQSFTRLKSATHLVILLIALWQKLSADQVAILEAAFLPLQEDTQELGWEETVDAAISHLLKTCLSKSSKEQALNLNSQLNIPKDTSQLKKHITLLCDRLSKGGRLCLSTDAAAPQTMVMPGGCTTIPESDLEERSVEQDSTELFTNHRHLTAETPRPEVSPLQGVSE
# Variants of: B1
# Conditions: with pthb1_human BBS9, Q3SYG4
row,Variant,effect of a mutation on the interaction
1,K659E,with no effect
2,I695E,with no effect
3,V694K,with no effect
4,I503K,with no effect
5,A682K,with no effect
6,I567K,with no effect
7,I567E,with no effect
8,T558K,with no effect
9,D560K,with no effect
10,P690K,with no effect
11,L519E,with no effect
12,Y658K,with no effect
13,H525E,with no effect
14,L647A,with no effect
15,L647E,with no effect
16,R681K,with no effect
17,T639E,with no effect
18,T639A,with no effect
19,H543A,with no effect
20,A419E,with no effect
21,S365A,with no effect
22,E394K,with no effect

row,Variant,effect of a mutation on the interaction
1,R509A,with no effect
2,R699A,with no effect
3,E420A,with no effect
4,D454K,with no effect
5,V626E,with no effect
6,L391K,with no effect
7,R413K,disrupting interaction strength
8,D450K,with no effect
9,E522K,with no effect
10,S497A,disrupting interaction strength
11,V461E,disrupting interaction strength
12,D371K,with no effect
13,A678E,with no effect
14,A678K,with no effect
15,G515E,with no effect
16,G515A,with no effect
17,L624A,with no effect
18,V446A,with no effect
19,N347K,with no effect
20,V588E,with no effect
21,S466E,disrupting interaction strength
22,P447A,with no effect

row,Variant,effect of a mutation on the interaction
1,I376A,with no effect
2,Y648A,with no effect
3,S407F,disrupting interaction strength
4,N327E,with no effect
5,Q477A,with no effect
6,M329E,with no effect
7,D566A,with no effect
8,T475K,with no effect
9,Q581K,with no effect
10,S720A,with no effect
11,E591A,with no effect
12,Q608E,with no effect
13,A719K,with no effect
14,S570L,disrupting interaction strength
15,T536A,with no effect
16,Q516A,with no effect
17,D601E,with no effect
18,D601A,with no effect
19,Q569A,with no effect
20,G462D,disrupting interaction strength
21,R686A,with no effect
22,S438K,with no effect

row,Variant,effect of a mutation on the interaction
1,R715K,with no effect
2,F586E,with no effect
3,L352A,with no effect
4,D523E,with no effect
5,Q693K,with no effect
6,Q693E,with no effect
7,L633E,with no effect
8,S342E,with no effect
9,V533A,with no effect
10,F460E,disrupting interaction strength
11,I377A,with no effect
12,T381A,with no effect
13,V453A,with no effect
14,G375E,disrupting interaction strength
15,K638A,with no effect
16,N358A,with no effect
17,G552E,disrupting interaction strength
18,H665A,with no effect
19,S482P,disrupting interaction strength
20,R652K,with no effect
21,R652A,with no effect
22,A628E,with no effect
